The target in assay [1] is T1, hu-IL-2Rγc subunit (human), P31785.
T1 chain: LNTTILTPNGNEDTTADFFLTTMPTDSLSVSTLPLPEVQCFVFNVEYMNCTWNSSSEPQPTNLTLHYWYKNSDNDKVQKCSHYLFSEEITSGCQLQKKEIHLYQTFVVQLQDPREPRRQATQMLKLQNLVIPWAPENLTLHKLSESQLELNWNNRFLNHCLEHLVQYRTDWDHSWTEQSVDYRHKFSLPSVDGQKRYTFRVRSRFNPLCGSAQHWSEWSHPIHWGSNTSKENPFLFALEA

The target is the same in assay [2]. Description: phage ELISA competition assay. On the technique in general: In an ELISA, binding on a coated surface is turned into a signal by an enzyme label.
For another assay, the target named is T2, hu-IL-2Rγc subunit (human, UniProt P31785 23-262, limits assumed).
T2 sequence (looked up): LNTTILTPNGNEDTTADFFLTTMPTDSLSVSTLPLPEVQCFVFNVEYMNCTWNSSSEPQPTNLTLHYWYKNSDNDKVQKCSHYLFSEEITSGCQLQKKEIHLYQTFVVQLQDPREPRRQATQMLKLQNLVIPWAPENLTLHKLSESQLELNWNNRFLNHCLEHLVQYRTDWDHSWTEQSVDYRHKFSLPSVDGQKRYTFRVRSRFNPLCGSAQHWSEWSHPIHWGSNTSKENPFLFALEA

Like-named read-outs stand apart in the source and are kept apart here. Non-standard residues stand in square brackets, D forms with d. No end group written: not given here. Alb = not defined here

One may read the IC50 as the point on the concentration scale where inhibition reaches its midpoint. Read a low IC50 as inhibition by little substance. As to AVCQDWYGVELCWCMQDILD (modifications not checked) [SEQ ID NO 705], the IC50 in assay [1] was under 100 µM; in assay [2], under 10 µM.
Regarding ERPRSFIECQEWEGVELCWL (modifications not checked) [SEQ ID NO 663], the 50% inhibitory concentration (IC50) in assay [1] is under 100 µM; in assay [2] it was under 10 µM.
Taken in the same sequence, the figures for RPEVVCQEWEGVELCWISPL (modifications not checked) [SEQ ID NO 690] were under 100 µM and under 10 µM.
Taken in the same sequence, the figures for TWNMSELECQDWNGVEICWH (modifications not checked) [SEQ ID NO 668] were under 100 µM and under 10 µM.
Consider GGVVCQDWEGVSLCWQGG [SEQ ID NO 746], for which the IC50 with hu-IL-2Rγc subunit is under 100 µM.
On the same count and under the same terms, then GGVVCQDWEGVGLCWQGG [SEQ ID NO 747], with under 100 µM.
As to RPQIECQEWQGVELCWTREE (modifications not checked) [SEQ ID NO 678], the values for the IC50 in assay [1] and in assay [2] were under 100 µM and under 10 µM, respectively.
On to DWRRSVVECQDWYGVELCWQ (modifications not checked) [SEQ ID NO 656], for which the half-inhibitory concentration (IC50) in assay [1] is under 100 µM; in assay [2], under 10 µM.
Taken in the same sequence, the figures for RWAVSCQDWQGIELCWPEWD (modifications not checked) [SEQ ID NO 710] were under 100 µM and under 10 µM.
Regarding DRQVVCEEWDGVELCWIEES (modifications not checked) [SEQ ID NO 688], the results for the concentration for half-maximal inhibition (IC50) in assay [1] and in assay [2] were under 100 µM and under 10 µM, respectively.
The corresponding values for SVEVVCEEWHGVELCWPVFI (modifications not checked) [SEQ ID NO 709] are under 100 µM and under 10 µM.
In the assay with hu-IL-2Rγc subunit, GGTWNMSELECQDWNGVEICWHGG [SEQ ID NO 740] came in with an IC50 of under 100 µM.
For the molecule IMCQEWDGVELCWLERDKAN (modifications not checked) [SEQ ID NO 680], the IC50 in assay [1] was under 100 µM; in assay [2] it was under 10 µM.
With RVQVECEDWNGVELCWPVRV (modifications not checked) [SEQ ID NO 687], the IC50 in assay [1] is under 100 µM; in assay [2] it was under 10 µM.
Take GGVMCERWQGVELCWLGG [SEQ ID NO 738]: the half-maximal inhibitory concentration (IC50) in the assay with hu-IL-2Rγc subunit is under 100 µM.
Same read-out and setting: then GGVVCQDWEGVXLCWQGG (not fully specified; Abu at residue 12, as printed in the table) [SEQ ID NO 743], with under 100 µM.
Regarding GLEIACEDWYGVELCWLRRA (modifications not checked) [SEQ ID NO 681], the IC50 is under 100 µM in assay [1] and under 10 µM in assay [2].
The corresponding values for TLGRTVVECQDWGGVELCWQ (modifications not checked) [SEQ ID NO 658] are under 100 µM and under 10 µM.
On to KSQVECQDWEGVELCWVVSE (modifications not checked) [SEQ ID NO 676], for which the figures for the concentration for half-maximal inhibition (IC50) in assay [1] and in assay [2] were under 100 µM and under 10 µM, respectively.
In the assay with hu-IL-2Rγc subunit, GGRTGVECQDWHGVELCWPVWEGG [SEQ ID NO 742] had an IC50 of under 100 µM.
Consider GPEVVCEEFNRVELCWVEYN (modifications not checked) [SEQ ID NO 696], for which the IC50 in assay [1] was under 100 µM; in assay [2], under 10 µM.

B1: SEQ ID NO 744 (peptide)
peptide: GGVVCQDWEGV[Alb]LCWQGG
modifications: not fully specified; printed as G G V V C Q D W E G V Alb L C W Q G G; cysteine pairing not given here; reading uncertain
In turn, B1 returned a 50% inhibitory concentration (IC50) with hu-IL-2Rγc subunit of under 100 µM.
TDEVSCQEWEGVELCWIERQ (modifications not checked) [SEQ ID NO 694]: the half-inhibitory concentration (IC50) in assay [1] is under 100 µM; in assay [2] it was under 10 µM.
GGRTEVECEDWEGVELCWLGG [SEQ ID NO 741] gave an IC50 with hu-IL-2Rγc subunit of under 100 µM.
Turning to VVCQEWEGVELCWQTGPGAHA (modifications not checked) [SEQ ID NO 699], the half-inhibitory concentration (IC50) in assay [1] was under 100 µM; in assay [2], under 10 µM.
SAGRQEVVCQDWNGVELCWI (modifications not checked) [SEQ ID NO 654]: the 50% inhibitory concentration (IC50) was under 100 µM in assay [1] and under 10 µM in assay [2].
In the assay with hu-IL-2Rγc subunit, GGDCSMWEGVELCWGG [SEQ ID NO 737] returned an IC50 of under 100 µM.
As to DVVCQNWDGVDLCWH (modifications not checked) [SEQ ID NO 657], the half-inhibitory concentration (IC50) is under 100 µM in assay [1] and under 10 µM in assay [2].
The corresponding values for VSCQEWDGVELCWVDGDLAA (modifications not checked) [SEQ ID NO 679] are under 100 µM and under 10 µM.
The corresponding values for SPSIVCEEWAGVELCWVDYS (modifications not checked) [SEQ ID NO 704] are under 100 µM and under 10 µM.
The corresponding values for ANQNTVVECQDWHGVELCWQ (modifications not checked) [SEQ ID NO 665] are under 100 µM and under 10 µM.
In the case of IVCEDWRGVELCWI (modifications not checked) [SEQ ID NO 660], the figures for the 50% inhibitory concentration (IC50) in assay [1] and in assay [2] were under 100 µM and under 10 µM, respectively.
Taken in the same sequence, the figures for IVCEEYNGVELCWVETSVKP (modifications not checked) [SEQ ID NO 700] were under 100 µM and under 10 µM.
GNDDSYIVCEEWKGVELCWI (modifications not checked) [SEQ ID NO 669]: the IC50 is under 100 µM in assay [1] and under 10 µM in assay [2].
Consider RLGVECQEWEGVDLCWISAF (modifications not checked) [SEQ ID NO 691], for which the 50% inhibitory concentration (IC50) in assay [1] is under 100 µM; in assay [2], under 10 µM.
Taken in the same sequence, the figures for GYGVLCQEWQGVELCWPVQREAGV (modifications not checked) [SEQ ID NO 682] were under 100 µM and under 10 µM.
Take QLGVECQNWRGVELCWVSEI (modifications not checked) [SEQ ID NO 702]: the results for the half-inhibitory concentration (IC50) in assay [1] and in assay [2] were under 100 µM and under 10 µM, respectively.
Taken in the same sequence, the figures for VECEEWGGVELCWLADEVMW (modifications not checked) [SEQ ID NO 706] were under 100 µM and under 10 µM.
Taken in the same sequence, the figures for GDRPKEVVCEDWKGVELCWI (modifications not checked) [SEQ ID NO 662] were under 100 µM and under 10 µM.
On to EQQVVCQEWNGVELCWIEAG (modifications not checked) [SEQ ID NO 701], for which the IC50 in assay [1] is under 100 µM; in assay [2] it was under 10 µM.
Taken in the same sequence, the figures for PVEVRCQEWEGVELCWVVGI (modifications not checked) [SEQ ID NO 695] were under 100 µM and under 10 µM.
Taken in the same sequence, the figures for PYGVVCQDWAGVELCWVENR (modifications not checked) [SEQ ID NO 683] were under 100 µM and under 10 µM.
The corresponding values for LNRSVWIECEEYEGVELCWL (modifications not checked) [SEQ ID NO 671] are under 100 µM and under 10 µM.
With RTEVECEDWEGVELCWL (modifications not checked) [SEQ ID NO 713], the concentration for half-maximal inhibition (IC50) in assay [1] is under 100 µM; in assay [2] it was under 10 µM.
In the case of KYIVECQEWGGVELCWPEMV (modifications not checked) [SEQ ID NO 697], the IC50 in assay [1] is under 100 µM; in assay [2] it was under 10 µM.
GGVGIECEEWAGVELCWLGG [SEQ ID NO 739] displayed an IC50 with hu-IL-2Rγc subunit of under 100 µM.
In the case of INCQTWNGVELCWVDEGLYQ (modifications not checked) [SEQ ID NO 685], the results for the IC50 in assay [1] and in assay [2] were under 100 µM and under 10 µM, respectively.
Taken in the same sequence, the figures for HSTVICQDWDGVELCWIEND (modifications not checked) [SEQ ID NO 707] were under 100 µM and under 10 µM.
Taken in the same sequence, the figures for TAEVVCQEWDGVELCWIEVL (modifications not checked) [SEQ ID NO 703] were under 100 µM and under 10 µM.
Taken in the same sequence, the figures for KITVECQDWDGVELCWPTWI (modifications not checked) [SEQ ID NO 677] were under 100 µM and under 10 µM.
For GQGREVVVCHDWYGVELCWQ (modifications not checked) [SEQ ID NO 655], the results for the concentration for half-maximal inhibition (IC50) in assay [1] and in assay [2] were under 100 µM and under 10 µM, respectively.

For the origin of these results see US20240101959A1, “USE OF IL-2R-BETA-GAMMA AGONIST PEPTIDES IN CELL MANUFACTURING” (MEDIKINE, INC., priority 2022, published 2024).
